From patent US20210032313A1 (Daiichi Sankyo, published 2021)

T1: human KLK5 (human, UniProt Q9Y337 67-293)
T1 sequence: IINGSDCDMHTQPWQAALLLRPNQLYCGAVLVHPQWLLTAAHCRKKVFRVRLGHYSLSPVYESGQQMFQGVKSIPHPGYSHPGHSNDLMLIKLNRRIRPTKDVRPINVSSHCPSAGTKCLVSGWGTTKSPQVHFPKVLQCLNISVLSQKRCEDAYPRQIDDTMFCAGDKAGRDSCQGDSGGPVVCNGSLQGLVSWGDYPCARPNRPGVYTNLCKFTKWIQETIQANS

T2: mouse KLK14 (mouse, UniProt Q8CGR5 24-250)
T2 sequence: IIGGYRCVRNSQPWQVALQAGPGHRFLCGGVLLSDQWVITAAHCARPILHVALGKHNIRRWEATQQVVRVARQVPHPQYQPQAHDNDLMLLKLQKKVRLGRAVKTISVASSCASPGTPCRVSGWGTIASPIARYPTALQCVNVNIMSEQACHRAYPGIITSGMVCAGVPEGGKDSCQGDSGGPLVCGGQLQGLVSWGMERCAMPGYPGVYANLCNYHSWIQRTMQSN

T3: mouse KLK5 (mouse)
T3 chain: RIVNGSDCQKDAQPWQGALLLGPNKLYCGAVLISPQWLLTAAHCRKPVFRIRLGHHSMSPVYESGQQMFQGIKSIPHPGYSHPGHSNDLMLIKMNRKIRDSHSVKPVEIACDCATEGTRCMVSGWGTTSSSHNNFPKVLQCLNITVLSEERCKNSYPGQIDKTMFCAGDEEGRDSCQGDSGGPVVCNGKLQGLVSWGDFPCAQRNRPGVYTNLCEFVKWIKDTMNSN

T4: KLK8 (human, UniProt O60259)
T4 construct: prepared by the inventors; 5 nM in the assay; substrate Boc-Val-Pro-Arg-AMC 100 µM; also called Human KLK8; hKLK8
T4 sequence (protease, looked up): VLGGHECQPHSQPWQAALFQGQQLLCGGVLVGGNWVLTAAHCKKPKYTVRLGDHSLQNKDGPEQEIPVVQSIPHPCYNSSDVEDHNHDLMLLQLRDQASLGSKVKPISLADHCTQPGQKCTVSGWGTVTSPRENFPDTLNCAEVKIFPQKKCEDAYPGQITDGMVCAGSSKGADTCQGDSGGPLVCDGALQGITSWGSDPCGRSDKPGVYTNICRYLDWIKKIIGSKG

T5: human KLK14 (human, UniProt Q9P0G3 25-251)
T5 sequence: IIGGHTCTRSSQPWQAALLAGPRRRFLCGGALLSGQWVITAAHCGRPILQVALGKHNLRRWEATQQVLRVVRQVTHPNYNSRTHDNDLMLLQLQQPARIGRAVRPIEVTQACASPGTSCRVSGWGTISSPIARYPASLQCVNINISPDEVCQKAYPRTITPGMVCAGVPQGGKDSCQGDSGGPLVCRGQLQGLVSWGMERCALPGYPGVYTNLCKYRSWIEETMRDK


Key:
KLK4 = molecular target: T6, KLK4 (human, UniProt Q9Y5K2); experiment: fluorogenic peptide substrate cleavage, 1 µM inhibitor
T6 construct: commercial enzyme (R&D Systems, 1719-SE); 1 µg/mL in the assay; substrate Boc-Val-Pro-Arg-AMC 100 µM; also called Human KLK4; hKLK4
T6 sequence (Q9Y5K2 31-254 limits assumed): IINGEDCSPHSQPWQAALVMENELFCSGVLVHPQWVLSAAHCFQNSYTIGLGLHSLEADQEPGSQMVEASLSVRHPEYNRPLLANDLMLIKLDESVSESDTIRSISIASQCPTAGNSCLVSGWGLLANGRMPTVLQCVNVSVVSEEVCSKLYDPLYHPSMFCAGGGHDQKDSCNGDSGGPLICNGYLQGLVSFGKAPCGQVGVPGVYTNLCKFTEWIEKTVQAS
Description: FIG. 3F includes graphs to evaluate the cross-reactivity of each inhibitory peptide with proteases, using the degradation of a peptide substrate as an index. For evaluating the Human KLK1 inhibitory activity, hKLK1 (R&D Systems, Inc., 2337-SE) with a final concentration of 0.1 μg/mL and a substrate peptide Pro-Phe-Arg-MCA (PEPTIDE […], INC., 3096-v) with a final concentration of 100 μM were used. For evaluating the Human KLK2 inhibitory activity, hKLK2 (R&D Systems, Inc., 4104-SE) with a final concentration of 2 μg/mL and a substrate peptide Pro-Phe-Arg-MCA (PEPTIDE […], INC., 3096-v) with a final concentration of 100 μM were used. For evaluating the Human KLK4 inhibitory activity, hKLK4 (R&D Systems, Inc., 1719-SE) with a final concentration of 1 μg/mL and a substrate peptide Boc-Val-Pro-Arg-AMC (R&D Systems, Inc., ES011) with a final concentration of 100 μM were used.
(§1) The specificities for other proteases were evaluated using the degradation of a substrate peptide as an index. As in the method described in (3-1), 25 μL each of a protease and a sample diluted with an assay buffer were mixed (to a final concentration of sample of 1 μM), followed by a reaction at 37° C. for 20 minutes. Thereafter, 50 μL of a substrate diluted with an assay buffer was added thereto, and the fluorescence signal was measured using Enspire (PerkinElmer). An assay buffer (50 mM Tris, 150 mM NaCl, pH 8.0) was used for the evaluation of the protease activity, and a PROTEOSAVE® SS96F black plate (Sumitomo Bakelite Co., Ltd.) was used for the reaction and the measurement. The combinations of the protease and the substrate used for the evaluation of the specificity were as follows.

human KLK5 [1] = molecular target: T1, human KLK5; experiment: cell-based or functional assay
Plasmin = molecular target: T7, Plasmin (human, UniProt P00747); experiment: fluorogenic peptide substrate cleavage, 1 µM inhibitor
T7 construct: commercial enzyme (Sigma-Aldrich, P1867); 50 nM in the assay; substrate Boc-Val-Leu-Lys-MCA 100 µM; also called Human plasmin
T7 sequence (P00747 97-810 limits assumed): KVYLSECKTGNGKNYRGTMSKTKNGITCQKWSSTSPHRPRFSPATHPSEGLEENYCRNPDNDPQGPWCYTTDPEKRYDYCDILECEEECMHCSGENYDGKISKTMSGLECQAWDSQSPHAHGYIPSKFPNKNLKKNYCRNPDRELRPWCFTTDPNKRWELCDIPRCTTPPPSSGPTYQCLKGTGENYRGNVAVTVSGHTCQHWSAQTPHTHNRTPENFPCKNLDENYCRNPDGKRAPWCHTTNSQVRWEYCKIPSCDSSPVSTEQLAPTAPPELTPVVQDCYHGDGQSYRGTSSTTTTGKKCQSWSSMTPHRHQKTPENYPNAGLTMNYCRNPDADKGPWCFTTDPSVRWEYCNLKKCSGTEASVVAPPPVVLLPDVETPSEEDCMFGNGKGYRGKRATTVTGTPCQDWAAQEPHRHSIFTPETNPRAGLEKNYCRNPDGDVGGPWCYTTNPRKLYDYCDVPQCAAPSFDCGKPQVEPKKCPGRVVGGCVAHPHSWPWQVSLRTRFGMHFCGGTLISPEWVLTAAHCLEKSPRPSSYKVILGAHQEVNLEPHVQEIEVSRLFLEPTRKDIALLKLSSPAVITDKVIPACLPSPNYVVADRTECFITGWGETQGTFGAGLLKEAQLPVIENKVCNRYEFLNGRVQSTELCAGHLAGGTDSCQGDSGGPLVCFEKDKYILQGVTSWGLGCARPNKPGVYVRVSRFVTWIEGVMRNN
Description: FIG. 3C includes graphs to evaluate the cross-reactivity of each inhibitory peptide with proteases, using the degradation of a peptide substrate as an index. For evaluating the Human plasmin inhibitory activity, plasmin (Sigma-Aldrich Co. LLC, P1867) with a final concentration of 50 nM and a substrate peptide Boc-Val-Leu-Lys-MCA (PEPTIDE […], INC., 3104-v) with a final concentration of 100 μM were used. For evaluating the Human thrombin inhibitory activity, thrombin (Sigma-Aldrich Co. LLC, T6884) with a final concentration of 1 nM and a substrate peptide Boc-Val-Pro-Arg-AMC (R&D Systems, Inc., ES011) with a final concentration of 100 μM were used. For evaluating the Human neutrophil elastase inhibitory activity, neutrophil elastase (Enzo Life Sciences, BML-SE284) with a final concentration of 0.00001 U/μL and a substrate peptide Suc (OMe)-Ala-Ala-Pro-Val-MCA (PEPTIDE […], INC., 3153-v) with a final concentration of 100 μM were used.
The specificities for other proteases were evaluated using the degradation of a substrate peptide as an index. […] Thereafter, 50 μL of a substrate diluted with an assay buffer was added thereto, and the fluorescence signal was measured using Enspire (PerkinElmer). […]

mouse KLK14 = molecular target: T2, mouse KLK14; experiment: cell-based or functional assay
mouse KLK5 = molecular target: T3, mouse KLK5; experiment: cell-based or functional assay
mouse KLK7 = mouse KLK7 (mouse, UniProt Q91VE3 26-249); experiment: cell-based or functional assay
mouse KLK7, sequence (Q91VE3 26-249): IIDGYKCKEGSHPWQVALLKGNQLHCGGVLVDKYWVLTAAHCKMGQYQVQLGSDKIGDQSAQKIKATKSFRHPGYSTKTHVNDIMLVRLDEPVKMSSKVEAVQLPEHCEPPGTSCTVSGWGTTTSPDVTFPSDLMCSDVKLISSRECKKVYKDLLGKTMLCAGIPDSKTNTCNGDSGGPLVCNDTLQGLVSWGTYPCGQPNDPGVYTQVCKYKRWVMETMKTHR

human KLK5 [2] = molecular target: T1, human KLK5; experiment: SPR, BIAcore T200; biotinylated KLK5 captured on chip, peptide as analyte; single cycle kinetics, 1:1 model
Description: In order to measure the binding affinity of the KLK5 inhibitory peptides, surface plasmon resonance analysis was conducted using BIAcore T 200 (GE healthcare). A complementary strand of DNA of a streptavidin conjugate was captured by hybridization on Sensor Chip CAP (GE healthcare) on which single-stranded DNA immobilized. Next, KLK5 biotinylated using EZ-Link NHS-PEG4-Biotin (Thermo Fisher Scientific) was captured at a flow rate of 10 μL/min to immobilize about 10 RU. Thereafter, the KLK5 inhibitory peptide, serially diluted 2-fold with HBS-EP (0.625 to 10 nM), was added thereto as an analyte at a flow rate of 30 μL/min. In the BIAcore T 200 Evaluation software (version 2.0), kon and koff were calculated by analysis using Single cycle kinetics in a simple one-to-one Langmuir binding model. The dissociation constant KD was calculated as a ratio of koff/kₒₙ. Further, multiple KLK5 inhibitory peptides were measured by regenerating Sensor Chip CAP using a Regeneration buffer attached to a Biotin CAPture Kit (GE healthcare) and repeatedly capturing biotinylated KLK5.

KLK8 = molecular target: T4, KLK8; experiment: fluorogenic peptide substrate cleavage, 1 µM inhibitor
Description: FIG. 3G includes graphs to evaluate the cross-reactivity of each inhibitory peptide with proteases, using the degradation of a peptide substrate as an index. For evaluating the Human KLK7 inhibitory activity, hKLK7 with a final concentration of 1 μg/mL and a substrate peptide Mca-Arg-Pro-Lys-Pro-Val-Glu-Nval-Trp-Arg-Lys (Dnp)-NH₂ (R&D Systems, Inc., ES002) with a final concentration of 20 μM were used. For evaluating the Human KLK8 inhibitory activity, hKLK8 (UniProt: 060259, prepared by the inventors) with a final concentration of 5 nM and a substrate peptide Boc-Val-Pro-Arg-AMC (R&D Systems, Inc., ES011) with a final concentration of 100 μM were used. For evaluating the Human KLK12 inhibitory activity, hKLK12 (R&D Systems, Inc., 3095-SE) with a final concentration of 0.1 μg/mL and a substrate peptide Boc-Val-Pro-Arg-AMC (R&D Systems, Inc., ES011) with a final concentration of 100 μM were used.
as §1

human KLK14 = molecular target: T5, human KLK14; experiment: cell-based or functional assay
human KLK7 = human KLK7 (human, UniProt P49862 30-253); experiment: cell-based or functional assay
human KLK7, sequence (P49862 30-253): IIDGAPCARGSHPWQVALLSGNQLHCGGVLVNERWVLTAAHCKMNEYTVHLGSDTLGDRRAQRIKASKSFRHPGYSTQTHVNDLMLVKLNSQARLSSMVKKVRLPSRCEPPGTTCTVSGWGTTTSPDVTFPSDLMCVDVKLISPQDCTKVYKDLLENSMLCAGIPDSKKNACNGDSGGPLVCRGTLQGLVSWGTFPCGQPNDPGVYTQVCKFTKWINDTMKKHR

bChymotrypsin = experiment: fluorogenic peptide substrate cleavage, 1 µM inhibitor
Description: FIG. 3A includes graphs to evaluate the cross-reactivity of each inhibitory peptide with proteases, using the degradation of a peptide substrate as an index. For evaluating the Bovine trypsin inhibitory activity, trypsin (Pierce, 20233) with a final concentration of 5 nM and a substrate peptide Boc-Val-Pro-Arg-AMC (R&D Systems, Inc., ES011) with a final concentration of 100 μM were used. For evaluating the Human trypsin inhibitory activity, trypsin (Sigma-Aldrich Co. LLC, T6424) with a final concentration of 1 nM and a substrate peptide Boc-Val-Pro-Arg-AMC (R&D Systems, Inc., ES011) with a final concentration of 100 μM were used. For evaluating the Bovine α-chymotrypsin inhibitory activity, chymotrypsin (Worthington Biochemical Corporation, LS001434) with a final concentration of 10 nM and a substrate peptide Suc-Leu-Leu-Val-Tyr-MCA (PEPTIDE […], INC., 3120-v) with a final concentration of 100 μM were used.
as §1

| Binder | binding result (KLK4) | IC50(nM) for hKLK5 (human KLK5 [1]) | binding result (Plasmin) | IC50(nM) for mKLK14 (mouse KLK14) | IC50(nM) for mKLK5 (mouse KLK5) | IC50(nM) for mKLK7 (mouse KLK7) | Kd (human KLK5 [2]) | koff (human KLK5 [2]) | kon (human KLK5 [2]) | binding result (KLK8) | IC50(nM) for hKLK14 (human KLK14) | IC50(nM) for hKLK7 (human KLK7) | binding result (bChymotrypsin) |
| --- | --- | --- | --- | --- | --- | --- | --- | --- | --- | --- | --- | --- | --- |
| KLK5 inhibitory peptide K51034 (SPINK2 mutant peptide made in E. coli) GPQFGLFSKYRTPNCGRYTTGGCNKEYEPVCGSDMSTYANECTLCMKIREGGHNIKIIRNGPCGG | binds | 6.4 nM | binds | > 1000 nM | 54 nM | > 1000 nM | 0.068 nM | 3.5e-05 s⁻¹ | 520000 M⁻¹ s⁻¹ |  |  |  |  |
| KLK5 inhibitory peptide K50062 (SPINK2 mutant peptide made in E. coli) GPQFGLFSKYRTPNCQQYRELGCGRQYDPVCGSDMSTYANECTLCMKIREGGHNIKIIRNGPCGG | binds | 7.5 nM |  | > 1000 nM | 10 nM | > 1000 nM | 0.0025 nM | 2.9e-06 s⁻¹ | 1.2e+06 M⁻¹ s⁻¹ | binds | 499 nM |  |  |
| KLK5/KLK7 inhibitory peptide K50031 (SPINK2 mutant peptide made in E. coli) GPQFGLFSKYRTPNCGEYKGRGCYYHYDPVCGSDMSTYANECTLCMKIREGGHNIKIIRNGPCGG |  | 5.4 nM |  | 244 nM | 40 nM | 4 nM | 0.061 nM | 5e-05 s⁻¹ | 820000 M⁻¹ s⁻¹ |  | > 1000 nM | 13 nM | binds |
| KLK5/KLK7 inhibitory peptide K51005 (SPINK2 mutant peptide made in E. coli) GPQFGLFSKYRTPNCMQHARQGCHYDYDPVCGSDMSTYANECTLCMKIREGGHNIKIIRNGPCGG | binds | 5.8 nM |  | 214 nM | 48 nM | 23 nM | 0.34 nM | 0.0012 s⁻¹ | 3.5e+06 M⁻¹ s⁻¹ |  |  | 17 nM | binds |
| KLK5/KLK7 inhibitory peptide K51057 (SPINK2 mutant peptide made in E. coli) GPQFGLFSKYRTPNCGTMQGSGCTYHYEPVCGSDMSTYANECTLCMKIREGGHNIKIIRNGPCGG |  | 12 nM |  | 437 nM | 149 nM | 27 nM | 0.26 nM | 0.0015 s⁻¹ | 6e+06 M⁻¹ s⁻¹ |  | > 1000 nM | 24 nM | binds |
